Test results reported in the nanobody polyreactivity screen of Harvey et al. (2022).

Test: yeast display, Sf9 membrane polyspecificity reagent, FACS + sequencing; frameworks hold sequencing errors
How it was run: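 Synthetic nanobody libraries on Saccharomyces cerevisiae BJ5465 were galactose-induced for 36–48 hours, stained 1 hour at 4 °C with 10% biotinylated, detergent-solubilized Sf9 membrane reagent and enriched on streptavidin microbeads. FACS then separated cells into low and high (top ~1%) gates by anti-HA (expression) and streptavidin (reagent binding) fluorescence. Genes were colony-PCR amplified, MiSeq 2 × 250 sequenced and CDR-length filtered. A clone's polyreactivity label is that of its gate of origin.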
In the case of “QVHLVESGGGLVQAGGSLRLSCAASGRTFFWYVMGWYRQAPGKERELVATISYGGITYYADSVKGRFTISRDNAKNTVYLQMNSLKPEDTAVYYCAARRSLYYSTVKFDGYYYWGQGTQVTVSS”, the “polyreactivity (PSR sort gate)” value is reported as “high polyreactivity”. For “QVHLVESGGGLVQAGGSLRLSCAASGRTFGWNVMGWYRQAPGTERELVAAISGSGGSTYYADSVKGRFTISRDNAKNTVYLQMNSLKPEDTAVYYCAALYGPGREYDYWGQGTQVTVSS”, the “polyreactivity (PSR sort gate)” value was “low polyreactivity”. With “QVHLVESGGGLVQAGGSLRLSCAASGRTFIYYAMGWYRQAPGKERELVASITTGGRTYYADSVKGRFTISRDNAKNTVYLQMNSLKPEDSAVYYCAAEPHFFWYYHYVYGEHDYWGQGTQVTVSS” the “polyreactivity (PSR sort gate)” value was “high polyreactivity”. With “QVHLVESGGGLVQAGGSLRLSCAASGRTFKYYAMGWYRQAPGKERELVAAISSRGGSTYYADSVKGRFTISRDNAKNTVYLQMNSLKPEDTAVYYCAKGTYLSTSTVANDYWGQGTQGTVSS” the “polyreactivity (PSR sort gate)” value was “high polyreactivity”. With “QVHLVESGGGLVQAGGSLRLSCAASGRTFPYNAMGGYRQAPGKERELVAAISSGGSTTYADSVKGRFTISRDNAKNTVYLQMNSQKPEDTAVYYCATKYQRRPYRYYYWGQGTQVTVSS” the “polyreactivity (PSR sort gate)” value was “low polyreactivity”. With “QVHLVESGGGLVQAGGSLRLSCAASGRTFSGYAMGWYRQAPGKERELVAAITSSGSSTYYADSVKGRFTISRDNAKNTVYLQMNSLKPEDTAVYYCAATPQAHSERYYYQRKYDYWGQGTQVTVSS” the “polyreactivity (PSR sort gate)” value was “low polyreactivity”. With “QVHLVESGGGLVQAGGSLRLSCAASGRTFSRYAMGWYRQAPGKERELVATITRGGSTNYADSVKGRFTISRDNAKNTVYLQMNSLKPEDTAVYYCNAASFRYQGTLNHFYYWGQGTQVTVSS” the “polyreactivity (PSR sort gate)” value was “low polyreactivity”. With “QVHLVESGGGLVQAGGSLRLSCAASGRTFSRYPMGWYRQAPGKERELVAAIRGNSGNTYYAYSVKGRFTISRDNAKNTVYLQMNSLKPEDTAVYYCAKPFNIWGQGTQVTVSS” the “polyreactivity (PSR sort gate)” value was “high polyreactivity”. In the case of “QVHLVESGGGLVQAGGSLRLSCAASGRTFSTYAMGWYRQAPGTERELVAAISSGGGRTYYADSVKGRFTISRDNAKNTVYLQMNRLKPEDTAVYYCAADRYFRSSRSYEYWGQGTLVTVSS”, the “polyreactivity (PSR sort gate)” value is reported as “low polyreactivity”. With “QVHLVESGGGLVQAGGSLRLSCAASGRTFWLNAMGWYRQAPGKERELVATISSSSGSTTYADSVKGRFTISRDNAKNTVYLQINSLKPEDTAVYYCAVYSHKKVRPEYDYWGQGTQVTVSS” the “polyreactivity (PSR sort gate)” value was “low polyreactivity”. For “QVHLVESGGGLVQAGGSLRLSCAASGRTFYSYVMGWYRQAPGKERELVAAISSTGGTYADSVKGRFTISRDNAKNTVYLQINSLKPEETAVYYCAAATPTGYKRGGYWGQGTQVTVSS”, the “polyreactivity (PSR sort gate)” value was “low polyreactivity”. In the case of “QVHLVESGGGLVQAGGSLRLSCAASGRTIAAYAMGWYRQAPGKERELVAAISRSGGSTYYADSVKGRFTISRDNAKNTVYLQMNSLKPEDTAVYYCAAQRQYGKFDYWGQGTQVTVSS”, the “polyreactivity (PSR sort gate)” value is reported as “high polyreactivity”. In the case of “QVHLVESGGGLVQAGGSLRLSCAASGRTIRLNVMGWYRQAPGKERELVAAITRSVGSTYYADSVKGRFTISRDYAKNTVYLQMNSLKPEDTAVYYCNAVRSRYYDDYDYWGQGTQVTVSS”, the “polyreactivity (PSR sort gate)” value is reported as “high polyreactivity”. For “QVHLVESGGGLVQAGGSLRLSCAASGRTLVPNAMGWYRQAPGKERELVAAISRSGGSTYYADSLKGRFTISRDNAKNTVYLQMNSLKPEDTAVYYCAKDKRIFYRVGSDYWGQGTQVTVSS”, the “polyreactivity (PSR sort gate)” value was “low polyreactivity”. In the case of “QVHLVESGGGLVQAGGSLRLSCAASGRTLYYYTMGWYRQAPGKERDLVAAIRWSTGSTYYADSVKGRFTISRDNAKNTVYLQMNSLKPEDTAVYYCNASRYQWAQSTEYDYWGQGTQVTVSS”, the “polyreactivity (PSR sort gate)” value is reported as “high polyreactivity”. For “QVHLVESGGGLVQAGGSLRLSCAASGSICGHYAMGWYRQAPGKERELVANITLSDGRTYYADSVKGRFTISLDNAKNTVYFQMNSLKPEDTAVYYCAARYYSFSSPFDYWGQGNQVTVSS”, the “polyreactivity (PSR sort gate)” value was “high polyreactivity”. In the case of “QVHLVESGGGLVQAGGSLRLSCAASGSIFFTYAMGWYRQAPGKETEWVAAISSGGSPYYADSVKGRFTISRDNANNTVYLQMNSLKPEDTEVYYCAARGYRLVPVDFSYWGQGTQVTVSS”, the “polyreactivity (PSR sort gate)” value is reported as “low polyreactivity”. With “QVHLVESGGGLVQAGGSLRLSCAASGSIFGGYGMGWYRQAPGKEREMVAAITSGSSTYYADSVKGPFTISRDNAKNSVYFQLNSLKPEDTAVYYCAARPYPHSAYEGDYWGRGTQVTVSS” the “polyreactivity (PSR sort gate)” value was “low polyreactivity”. In the case of “QVHLVESGGGLVQAGGSLRLSCAASGSIFGYNAMGWYRQAPGKERELVAAISLTTGSTYYADSVKGRFTISRDNAKNTVYLQMNSLKPEDTAVYYCAIRGFYRGYGQAYGYWGQGTLVTVSS”, the “polyreactivity (PSR sort gate)” value is reported as “high polyreactivity”. In the case of “QVHLVESGGGLVQAGGSLRLSCAASGSIFHGYSMGWYRQAPGKERELVAAINSGDGSTYADSVKGRFTISRDNAKNTVYLQMNSLKPEDTAVYYCATDGTYYEHDYWGQATQVTVSS”, the “polyreactivity (PSR sort gate)” value is reported as “low polyreactivity”. For “QVHLVESGGGLVQAGGSLRLSCAASGSIFPFNAMGWYRQAPGKERELVAAIRWSDGRTYYADSVKGRFTISRDNAKNTVYLQMNSLKPEDTAVYYCAAKSYWGQGTQVTVSS”, the “polyreactivity (PSR sort gate)” value was “high polyreactivity”. In the case of “QVHLVESGGGLVQAGGSLRLSCAASGSIFQPYAMGWYRQAPGTERELVAAISSSGGSTTYADSVKGRFTISRDKAKNTVYLQMNSLKPEDTAVYYCAAESADDMGYWGQGTQVTVSS”, the “polyreactivity (PSR sort gate)” value is reported as “low polyreactivity”. In the case of “QVHLVESGGGLVQAGGSLRLSCAASGSIFRLYSMGWYRQAPGKERELVARITTGGSTNYADSVKGRFTISRDNAKNTVYLQMNSLKPEDTAVYYCNAGVWVTAQLGLQKYSYWGQGTQVTVSS”, the “polyreactivity (PSR sort gate)” value is reported as “high polyreactivity”. With “QVHLVESGGGLVQAGGSLRLSCAASGSIFSRNAMGWYRQAPGKERELVAAISRGANTYYADSVKGRFTISRDNAKNTVYLQMNSLKPEDTAVYYCNAGSRSRYEGGYWGQGTQVTVSS” the “polyreactivity (PSR sort gate)” value was “high polyreactivity”. For “QVHLVESGGGLVQAGGSLRLSCAASGSIFTQYAMGWYRQAPGKERELVARITGSGGRTYYADSVKGRFTISRDNAKNTVYLQMNSLKPEDTAVYYCNARLYTYGRHQGPDYNYWGQGTQVTVSS”, the “polyreactivity (PSR sort gate)” value was “high polyreactivity”. With “QVHLVESGGGLVQAGGSLRLSCAASGSIFTRYVMGWYRQAPGKERELVAAISGRGSSTYYADSVKGRFKISRDYAKNTVYLQMNSLKPEDTAVYYCAAEIVVFYSEGQRNTFYYWGQGTQVTVSS” the “polyreactivity (PSR sort gate)” value was “high polyreactivity”. With “QVHLVESGGGLVQAGGSLRLSCAASGSIFVPYAMGWYRQAPRKERELVAAINHGGGRTYADSVKGRFTISRDNAKNSVYLQMNSLKPDDTAVYYCAADGADKIGYYSYYYWGQGTQVTVSS” the “polyreactivity (PSR sort gate)” value was “low polyreactivity”. With “QVHLVESGGGLVQAGGSLRLSCAASGSIFYYNAMGWYRQAPGKERELVAAITSGDSTNYADSVKGRFTISRDNAKNTVYLQMNSLKPEDTAVYYCNTDGLVRNGPFYSWGQGTQVTVSS” the “polyreactivity (PSR sort gate)” value was “low polyreactivity”. For “QVHLVESGGGLVQAGGSLRLSCAASGSIFYYNTMGWYRQAPGKERELVAAIRFDDGSTYYADSVKGRFTISRDNAKNTVYLQMNSLKPEDTAVYYCAADWIVVSEFGLDYHMDYWGQGTQVTVSS”, the “polyreactivity (PSR sort gate)” value was “low polyreactivity”. With “QVHLVESGGGLVQAGGSLRLSCAASGSIIKRNAMGWYRQAPGKERELVATISSGDGSTRYADSVKGRFTISRDNAKNTVYLQMNSLKPEDSAVYYCAAASAAGYDYWGQGTQVTVSS” the “polyreactivity (PSR sort gate)” value was “low polyreactivity”. For “QVHLVESGGGLVQAGGSLRLSCAASGSILAGYAMGWYRQAPGKEWELVAAISSGGRTYYADSVKGRFTISRDNAKNTVYLQMNSLKPEDTAVYYSAAGKYDGSRRMYYWGQGTQVTVSS”, the “polyreactivity (PSR sort gate)” value was “high polyreactivity”. For “QVHLVESGGGLVQAGGSLRLSCAASGSISVANAMGWYRQAPGKERELVAAITDSGDDTYYADSVKGRFTISRDNAKNTVYLQMNSLKPEDTAVYYCAVEAWSVPPYDYWGQGTQVTVSS”, the “polyreactivity (PSR sort gate)” value was “low polyreactivity”. For “QVHLVESGGGLVQAGGSLRLSCAASGSIYVNTMGWYRQAPGKDRELVAGISRSTGRTYYADSVKGRFTISRDNAKNTVYLQMNSLKPEDTAVYYCNTVPWRRWGYDYWGQGTQVTVSS”, the “polyreactivity (PSR sort gate)” value was “high polyreactivity”. For “QVHLVESGGGLVQAGGSLRLSCAASGSTFDTYALGWYRQAPGKEWELVAAINTGGRTKYADSVKGRFTISRDNAKNTVYLQMNSLKPVDTGVYYCAARLSTTGVAYGYWGLGTQVTVSS”, the “polyreactivity (PSR sort gate)” value was “high polyreactivity”. In the case of “QVHLVESGGGLVQAGGSLRLSCAASGSTFEQYAMGWYIQAPGKERELVAAISGSGTRTYYADSVKGRFTISRDNAKNTVYLQMNSLKPEDTAVYSCRTGSGEYDYWGQGTQVTVSS”, the “polyreactivity (PSR sort gate)” value is reported as “high polyreactivity”. In the case of “QVHLVESGGGLVQAGGSLRLSCAASGSTFGTYAMGWYRQAPGKERELVAAISNSGGSTYYADSVKGRFTISRDYAKNTVYLQMNSLKPEDTAVYYCNTDGLVRNGPFYSWGQGTQVTVSS”, the “polyreactivity (PSR sort gate)” value is reported as “low polyreactivity”. With “QVHLVESGGGLVQAGGSLRLSCAASGSTFQLYAMGWYRQAPGKERELVAAITSSAGRTYYADSVKGRFTISRDNAKNTVYLQMNSLKPEDTAVYYCAKDGSFTFWGQGTQVTVSS” the “polyreactivity (PSR sort gate)” value was “low polyreactivity”. With “QVHLVESGGGLVQAGGSLRLSCAASGSTFRSYVMGWSRQAPGKERELVAAISRGGTTYYADSVKGRFTISRDNAKNTVYLQMNSLKPEDTPVYYCAATRTTRFYTGSKMNYWGQGTQVTVSS” the “polyreactivity (PSR sort gate)” value was “high polyreactivity”. With “QVHLVESGGGLVQAGGSLRLSCAASGSTFTRNVMGWYRQAPGKERELVASISRSGGRTYYADSVKGRFTISRDNAKNTVYLQMNSLKPEDTAVYYCAAKSFYYLDPYDYWGQGTQVTVSS” the “polyreactivity (PSR sort gate)” value was “high polyreactivity”. With “QVHLVESGGGLVQAGGSLRLSCAASGSTFVNYTMGWYIQAPGKERELVAITIGAGRTYYADSVKGRFTISRDNAKNTVYLPMNSLKPEDTAVYYCAVRLYANSGRFDYWGQGTQVTVSS” the “polyreactivity (PSR sort gate)” value was “low polyreactivity”. In the case of “QVHLVESGGGLVQAGGSLRLSCAASGSTFWKYVMGWYILAPGKERELVAAITSRGGSTYADSVKGRFTISRDNAKNTVYLQMNSLKTEDTAVYYCAATKFWYYGYDYWGQGTQVTVSS”, the “polyreactivity (PSR sort gate)” value is reported as “low polyreactivity”. With “QVHLVESGGGLVQAGGSLRLSCAASGSTFYAYTMGWYRQAPGKERELVAAISSRGGRTYYADSVKGRFTISRDNAKNTVYLQMNSLKPEDTAVYYCARTSWSGVSYDYWGQGTQVTVSS” the “polyreactivity (PSR sort gate)” value was “high polyreactivity”. In the case of “QVHLVESGGGLVQAGGSLRLSCAASGSTFYPYAMGWYRQAPGKEREVVAGISRSGGTTYYADSVKGRFTISRDNANNTVYLQMNSLKPEDTAVYYCAVQIPYVYWSYDYWGQGTQVTVSS”, the “polyreactivity (PSR sort gate)” value is reported as “low polyreactivity”.
